Positions count from the first letter of the chain named.
B1: ATG8d-competitor (mutated DRE) (dsDNA)
DNA 1: TCACGTTACATATGACAAACATAAAGATAA
DNA 2: TTATCTTTATGTTTGTCATATGTAACGTGA
B2: ATG18h promoter probe (WT DRE) (dsDNA)
DNA 1: GCGGTGAAAAGACCGACGGACGAAACGTGA
DNA 2: TCACGTTTCGTCCGTCGGTCTTTTCACCGC
B3: ATG18h-competitor (mutated DRE) (dsDNA)
DNA 1: B2 DNA 1 with C13T, C14T
DNA 2: B2 DNA 2 with G17A, G18A
B4: ATG8d promoter probe (WT DRE) (dsDNA)
DNA 1: B1 DNA 1 with A17C, A18G
DNA 2: B1 DNA 2 with T13C, T14G

Molecular target: ERF5 (Solanum lycopersicum, UniProt Q6Q4I4 1-244)
Assay: EMSA; EMSA Kit with SYBR Green & SYPRO Ruby stains (Invitrogen), per kit instructions; buffer, salt, pH, temperature not stated
Details: protein: recombinant; tags: pET-32a vector fusion (His control used); label: none (SYBR Green stain)

ERF5, sequence (Q6Q4I4 entry or part of it): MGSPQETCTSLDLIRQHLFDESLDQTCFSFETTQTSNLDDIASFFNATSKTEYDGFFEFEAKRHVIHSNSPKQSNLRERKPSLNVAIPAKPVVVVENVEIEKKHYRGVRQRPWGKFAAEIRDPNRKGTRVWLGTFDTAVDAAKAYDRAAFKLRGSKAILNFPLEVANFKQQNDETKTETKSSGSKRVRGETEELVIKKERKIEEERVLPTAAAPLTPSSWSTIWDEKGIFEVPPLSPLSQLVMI

Binder | binding result
B1 | no binding
B2 | binds
B3 | no binding
B4 | binds

Reference: article PMC6230944, “Mitochondrial alternative oxidase‐dependent autophagy involved in ethylene‐mediated drought tolerance in Solanum lycopersicum”
